The results in this text go back to patent US6716858B1, “Methods for inhibiting diabetic complications” (Kansas University Medical Center, priority 1995, dated 2004).

For data set [1], the system named is Sprague-Dawley rats, glomerular changes. Format: in vivo, rat. The conditions noted are these: for Alcian Blue pH 1.0, scoring of glomerular staining (sulfated glycosaminoglycans) / Alcian Blue pH 2.5, scoring of glomerular staining (acidic glycosaminoglycans) / HS core protein (Ab BL-31), scoring of glomerular staining: 6 weeks, average with standard error; for Alcian Blue pH 1.0, scoring of glomerular staining (sulfated glycosaminoglycans) / Alcian Blue pH 2.5, scoring of glomerular staining (acidic glycosaminoglycans) / HS core protein (Ab BL-31), scoring of glomerular staining / Creat C-2wk / Creat C-6wk: n = 4; for Creat C-2wk: creatinine clearance at 2 weeks; for Creat C-6wk: creatinine clearance at 6 weeks; for average glomerular volume / decrease in heparan sulfate (HS) side-chain staining relative to controls / glomerular albumin deposition / cross-linking relative to controls / immunofluorescent glomerular staining for Heparan Sulfate Proteoglycan Core protein / immunofluorescent glomerular staining for Heparan Sulfate Proteoglycan side-chain / immunofluorescent glomerular staining for RSA / increase in glomerular volume (GV) relative to controls / Alcian blue pH 1.0 glomerular staining versus controls / increase in acidic glycosaminoglycans, Alcian Blue pH 2.5 staining: rat, in vivo. The procedure:
Male Sprague-Dawley rats (Sasco, 100 g) were used. After a 1 week adaptation period, rats were placed in metabolic cages to obtain a 24 hour urine specimen for 2 days before administration of injections. Rats were then divided into experimental and control groups and given tail vein injections with either saline, unmodified RSA (50 mg/kg), Amadori-RSA (50 mg/kg), NaBH4-reduced Amadori-RSA (50 mg/kg), or AGE-RSA (50 mg/kg).
Rats injected with Amadori-RSA and AGE-RSA were then either left untreated, or further treated by the administration of either aminoguanidine (AG; 25 mg/kg), pyridoxamine (PM; 25 mg/kg), or a combination of AG and PM (10 mg/kg each) through the drinking water. Body weight and water intake of the rats were monitored weekly in order to adjust dosages. At the conclusion of the experimental study the rats were placed in metabolic cages to obtain 24 hour urine specimen for 2 days prior to sacrificing the animals.
After perfusion with saline, kidney sections were fixed in ice-cold 10% neutral buffered formalin. Paraffin-embedded tissue sections from all rat groups (n=4 per group) were processed for staining with Harris' alum hematoxylin and eosin (H&E), perodic acid/Schiff reagent (PAS), and alcian blue (pH 1.0 and pH 2.5) stains for histological examination. The alcian blue sections were scored by two investigators in a blinded fashion.
Parrafin-embedded sections were deparaffinized and then blocked with 10% goat serum in PBS for 30 min at room temperature. […] The sections were then rinsed for 30 min with PBS in the dark, mounted in aqueous mounting media for immunocytochemistry (Biomeda), and cover slipped. Sections were scored in a blinded fashion. Kidney sections were evaluated by the number and intensity of glomerular staining in 5 regions around the periphery of the kidney. Scores were normalized for the immunofluorescent score per 100 glomeruli with a scoring system of 0-3.
All animals studies were carried out in conformance with institutional guidelines for animal research protocols. Male Sprague-Dawley 100 g rats (Sasco Co., Omaha Nebr.) were used in these studies. After a 1 week adaptation period, rats were placed in metabolic cages for 2 days to get two 24 hour urine specimens before starting treatment. Rats were then given daily single tail vein injections for 6 weeks according to the following treatment groups: saline, unmodified RSA (50 mg/kg), Amadori-RSA (50 mg/kg), NaBH4-reduced Amadori-RSA (50 mg/kg), and AGE-RSA (50 mg/kg). Groups of rats injected with Amadori-RSA or AGE-RSA were also administered aminoguanidine (25 mg/kg/day), pyridoxamine (25 mg/kg/day), a combination of the two (10 mg/kg/day each), or with nothing added to the drinking water. Body weight and water intake of the rat were monitored weekly in order to adjust dosages. At the conclusion of the study, the rats were placed in metabolic cages for two days to get two 24 hour urine specimens before sacrificing the animals.
Total protein in urine was determined by Bio-Rad assay. Albumin in urine was determined by competitive ELISA using rabbit anti-rat serum albumin (Cappell) as primary antibody (1:2000) and goat anti-rabbit IgG (Sigma) as a secondary antibody (1:2000). Urine was tested with Multistix 8 SG (Miles) for glucose, ketone, specific gravity, blood, pH, protein, nitrite and leukocytes. Creatinine measurements were performed with a Beckman creatinine analyzer II. Intracardiac blood samples were collected before termination and were used in the determination of creatinine clearance, blood glucose (glucose oxidase, Sigma), fructosamine (nitroblue tetrazolium, Sigma), and glycated Hb (Glycotest II analytical boronate columns, Pierce).
After perfusion with saline, kidney sections were fixed in ice-cold 10% neutral buffered formalin. […]

Data set [2] relates to post-Amadori AGE formation, RNase Amadori intermediate. Briefly: Interrupted (post-Amadori) ribose glycation assay, RNase. Format: biochemical, bovine. The conditions noted are these: up to 50 mM; protein not stated (FIG. 21). As for the experimental part: ELISA detection of AGE products. The general method of Engvall (1981, Methods Enzymol. 70:419-439) was used to perform the ELISA. Typically, glycated protein samples were diluted to approximately 1.5 ug/ml in 0.1 M sodium carbonate buffer of pH 9.5 to 9.7. The protein was coated overnight at room temperature onto 96-well polystyrene plates by pippetting 200 ul of the protein solution in each well (0.3 ug/well). After coating, the protein was washed from the wells with a saline solution containing 0.05% Tween-20. The wells were then blocked with 200 ul of 1% casein in carbonate buffer for 2 h at 37° C. followed by washing. Rabbit anti-AGE antibodies were diluted at a titer of about 1:350 in incubation buffer, and incubated for 1 h at 37° C., followed by washing. In order to minimize background readings, antibodies R479 used to detect glycated RNase were raised against glycated BSA, and antibodies R618 used to detect glycated BSA and glycated Hb were raised against glycated RNase. An alkaline phosphatase-conjugated antibody to rabbit IgG was then added as the secondary antibody at a titer of 1:2000 or 1:2500 (depending on lot) and incubated for 1 h at 37° C., followed by washing. The p-nitrophenylphosphate substrate solution was then added (200 ul/well) to the plates, with the absorbance of the released p-nitrophenolate being monitored at 410 nm with a Dynatech MR 4000 microplate reader.
Glycation Modifications Modification with ribose or glucose was generally done at 37° C. in 0.4 M phosphate buffer of pH 7.5 containing 0.02% sodium azide. The high buffer concentration was always used with 0.5 M ribose modifications. The solutions were kept in capped tubes and opened only to remove timed aliquots that were immediately frozen for later carrying out the various analyses. “Interrupted glycation” experiments were carried out by first incubating protein with the ribose at 37° C. for 8 or 24 h, followed by immediate and extensive dialysis against frequent cold buffer changes at 4° C. The samples were then reincubated by quickly warming to 37° C. in the absence of external ribose. Aliquots were taken and frozen at various intervals for later analysis. Due to the low molecular weight of RNase, protein concentrations were remeasured after dialysis even when low molecular weight cut-off dialysis tubing was used. An alternative procedure was also devised (see below) in which interruption was achieved by simple 100-fold dilution from reaction mixtures containing 0.5 M ribose. Protein concentrations were estimated from UV spectra. The difference in molar extinction between the peak (278 nm) and trough (250 nm) was used for RNase concentration determinations in order to compensate for the general increase in UV absorbance that accompanies glycation. Time-dependent UV-difference spectral studies were carried out to characterize the glycation contributions of the UV spectrum. […]
Glycation was first carried out by incubating protein (10 mg/ml) with 0.5 M ribose at 37° C. in 0.4 M phosphate buffer at pH 7.5 containing 0.2% sodium azide for 24 h in the absence of inhibitors. Glycation was then interrupted to remove excess and reversibly bound (Schiff base) sugar by extensive dialysis against frequent cold buffer changes at 4° C.

For the molecule “AGE-RSA: Amadori-RSA re-incubated in the absence of sugar for 2-3 days at 37° C.”, in data set [1], the “Alcian Blue pH 1.0, scoring of glomerular staining (sulfated glycosaminoglycans)” value (“Alcian Blue pH 1.0, scoring” for short) is 1.25 ± 0.14; the “Alcian Blue pH 2.5, scoring of glomerular staining (acidic glycosaminoglycans)” value (from here on “Alcian Blue pH 2.5, scoring”) came to 2.44± 0.21; the “HS core protein (Ab BL-31), scoring of glomerular staining” value (from here on “HS core protein (Ab BL-31), scoring”) was determined as 238 ± 10; the “Creat C-2wk” value was 0.56 ± 0.04 ml/(min*100g). Besides, in data set [1], the “Creat C-6wk” value is listed as 0.86 ± 0.11 ml/(min*100g), the average glomerular volume entry is given as “significant increase in average glomeruli volume”, the “decrease in heparan sulfate (HS) side-chain staining relative to controls” value is reported as 50% and the “glomerular albumin deposition / cross-linking relative to controls” value is listed as “four-fold increase”. Also, in data set [1], the “immunofluorescent glomerular staining for Heparan Sulfate Proteoglycan Core protein” value is recorded as “slightly reduced staining”, the “immunofluorescent glomerular staining for Heparan Sulfate Proteoglycan side-chain” value is recorded as “highly reduced staining”, the “immunofluorescent glomerular staining for RSA” value is recorded as “elevated staining” and the “increase in glomerular volume (GV) relative to controls” value stood at 30%. Further, in data set [1], the “Alcian blue pH 1.0 glomerular staining versus controls” value was “significantly decreased” and the “increase in acidic glycosaminoglycans, Alcian Blue pH 2.5 staining” value is given as 50-60%.

Consider `CC(=O)N[C@@H](CCCCN)C(=O)O` [N^60 -acetyl-L-lysine, N^α-acetyl-L-lysine], for which, in data set [2], the “inhibition of post-Amadori AGE formation” value was “failed to exhibit any significant inhibition of AGE formation”.

As to “Amadori-RSA: rat serum albumin incubated with 0.5 M ribose for 12 hours, then dialyzed; negative for antigenic AGEs”, in data set [1], the “Alcian Blue pH 1.0, scoring” value came to 2.00 ± 0.41; the “Alcian Blue pH 2.5, scoring” value was 2.12 ± 0.12; the “HS core protein (Ab BL-31), scoring” value is 235 ± 12; the “Creat C-2wk” value is 1.02 ± 0.10 ml/(min*100g). Moreover, in data set [1], the “Creat C-6wk” value is on record as 0.60 ± 0.10 ml/(min*100g), the average glomerular volume entry was “significant increase in average glomeruli volume”, the “decrease in heparan sulfate (HS) side-chain staining relative to controls” value is 25% and the “glomerular albumin deposition / cross-linking relative to controls” value is listed as “not different from the controls”. Further, in data set [1], the “immunofluorescent glomerular staining for Heparan Sulfate Proteoglycan Core protein” value was “slightly reduced staining”, the “immunofluorescent glomerular staining for Heparan Sulfate Proteoglycan side-chain” value was “highly reduced staining”, the “immunofluorescent glomerular staining for RSA” value is “elevated staining” and the “increase in glomerular volume (GV) relative to controls” value was 35%. In data set [1], the “Alcian blue pH 1.0 glomerular staining versus controls” value was “no significant difference” and the “increase in acidic glycosaminoglycans, Alcian Blue pH 2.5 staining” value was 50-60%.

B1: RSA: purified rat serum albumin, unmodified (protein, UniProt P02770 25-608, looked up)
Albumin: EAHKSEIAHRFKDLGEQHFKGLVLIAFSQYLQKCPYEEHIKLVQEVTDFAKTCVADENAENCDKSIHTLFGDKLCAIPKLRDNYGELADCCAKQEPERNECFLQHKDDNPNLPPFQRPEAEAMCTSFQENPTSFLGHYLHEVARRHPYFYAPELLYYAEKYNEVLTQCCTESDKAACLTPKLDAVKEKALVAAVRQRMKCSSMQRFGERAFKAWAVARMSQRFPNAEFAEITKLATDVTKINKECCHGDLLECADDRAELAKYMCENQATISSKLQACCDKPVLQKSQCLAEIEHDNIPADLPSIAADFVEDKEVCKNYAEAKDVFLGTFLYEYSRRHPDYSVSLLLRLAKKYEATLEKCCAEGDPPACYGTVLAEFQPLVEEPKNLVKTNCELYEKLGEYGFQNAVLVRYTQKAPQVSTPTLVEAARNLGRVGTKCCTLPEAQRLPCVEDYLSAILNRLCVLHEKTPVSEKVTKCCSGSLVERRPCFSALTVDETYVPKEFKAETFTFHSDICTLPDKEKQIKKQTALAELVKHKPKATEDQLKTVMGDFAQFVDKCCKAADKDNCFATEGPNLVARSKEALA
Take B1: in data set [1], the “Alcian Blue pH 1.0, scoring” value turned out to be 2.75 ± 0.14; the “Alcian Blue pH 2.5, scoring” value turned out to be 1.38 ± 0.24; the “HS core protein (Ab BL-31), scoring” value is listed as 226 ± 10; the “Creat C-2wk” value is listed as 0.86 ± 0.16 ml/(min*100g). Moreover, in data set [1], the “Creat C-6wk” value is 0.70 ± 0.02 ml/(min*100g).

B2: NaBH4-reduced: Amadori-RSA reduced with NaBH4 (protein, UniProt P02770 25-608, looked up)
Albumin: EAHKSEIAHRFKDLGEQHFKGLVLIAFSQYLQKCPYEEHIKLVQEVTDFAKTCVADENAENCDKSIHTLFGDKLCAIPKLRDNYGELADCCAKQEPERNECFLQHKDDNPNLPPFQRPEAEAMCTSFQENPTSFLGHYLHEVARRHPYFYAPELLYYAEKYNEVLTQCCTESDKAACLTPKLDAVKEKALVAAVRQRMKCSSMQRFGERAFKAWAVARMSQRFPNAEFAEITKLATDVTKINKECCHGDLLECADDRAELAKYMCENQATISSKLQACCDKPVLQKSQCLAEIEHDNIPADLPSIAADFVEDKEVCKNYAEAKDVFLGTFLYEYSRRHPDYSVSLLLRLAKKYEATLEKCCAEGDPPACYGTVLAEFQPLVEEPKNLVKTNCELYEKLGEYGFQNAVLVRYTQKAPQVSTPTLVEAARNLGRVGTKCCTLPEAQRLPCVEDYLSAILNRLCVLHEKTPVSEKVTKCCSGSLVERRPCFSALTVDETYVPKEFKAETFTFHSDICTLPDKEKQIKKQTALAELVKHKPKATEDQLKTVMGDFAQFVDKCCKAADKDNCFATEGPNLVARSKEALA
modifications: ribose-glycated, NaBH4-reduced
For the molecule B2, in data set [1], the “Alcian Blue pH 2.5, scoring” value was found to be 1.81 ± 0.47; the “HS core protein (Ab BL-31), scoring” value is 203 ± 14; the “Creat C-6wk” value is recorded as 0.86 ± 0.07 ml/(min*100g).
